Measured values reported in publication PMC2680067 (European journal of human genetics : EJHG, 2008).

Molecular target: the molecule itself
Experiment: cross-linking

B1: myc-EGFP-Trim50 (full-length mouse Trim50), expressed in U2OS cells (natural protein)
chain: MAWRLTVPELQDQLQCPICLEVFKEPLMLQCGHSYCKDCLDNLSQHLDSELCCPVCRQSVDCSSSPPNVSLARVIDALRLPGDIEPTVCVHHRNPLSLFCEKDQEFICGLCGLLGSHQHHRVTPVSTVYSRMKEELAGRISELKEEHRNVEEHIGKLVNNRTRIINESDVFSWVIRREFQELHHLVDEEKARCLEGLEGHTRGLVASLDMQLEQAQGTQERLAQAEQVLEQFGNESHHEFIRFHSVASRAEVQQARPLEGVFSPISFKPALHQADIKLTVWKRLFRKVLPAPASLKLDPATAHPLLELSKGNTVVHCGLLAQRRASQPERFDYSTCVLASKGFSWGRHYWEVVVGSKSDWRLGVIKGTASRKGKLNKSPEHGVWLIGLKEGRVYEAFGCPRLPLPVAGHPHRIGVYLHYEQGELTFFDADRPDDLRTLYTFQADFQGKLYPILDTCWHERGSNSLPMVLPPPSGPGHFTLGQV
- stoichiometry N: 3
